Starred links: 1 amine or outer side, 2 acyl side, 3 side chain; linkers in the order of their positions; H or OH if unused. Positions of bridges follow the written chain, without caps; N, C: chain ends. Non-standard residues stand in square brackets, D forms with d. Yde = (2S)-2-amino-3-[4-[2-(dimethylamino)ethoxy]phenyl]propanoic acid, CN(C)CCOc1ccc(C[C@H](N[*:1])C(=O)[*:2])cc1; Phe(4-OMe) = COc1ccc(C[C@H](N[*:1])C(=O)[*:2])cc1; Trp(7-Me) = Cc1cccc2c(C[C@H](N)C(=O)O)c[nH]c12; αMeLys(Me2) = CN(C)CCCC[C@](C)(N)C(=O)O; 2Nal = N[C@@H](Cc1ccc2ccccc2c1)C(=O)O; εLys = N[C@@H](CCCCN[*:1])C(=O)[*:2]; AEF = NCCOc1ccc(C[C@H](N)C(=O)O)cc1; NMe5Ava = CN(CCCCC(=O)[*:2])[*:1]; 3Pal = N[C@@H](Cc1cccnc1)C(=O)O; NMeN = CN[C@@H](CC(N)=O)C(=O)O; αMeL = CC(C)C[C@](C)(N)C(=O)O; Thp = NC1(C(=O)O)CCOCC1; Aib = CC(C)(N)C(=O)O; Ahx = NCCCCCC(=O)O; Ava = NCCCCC(=O)O; βAla = NCCC(=O)O; Sar = CNCC(=O)O
T1: IL-23 receptor on the surface of HEK-Blue IL-23 cells (UniProt Q5VWK5 24-629, limits assumed)
T1 sequence (looked up): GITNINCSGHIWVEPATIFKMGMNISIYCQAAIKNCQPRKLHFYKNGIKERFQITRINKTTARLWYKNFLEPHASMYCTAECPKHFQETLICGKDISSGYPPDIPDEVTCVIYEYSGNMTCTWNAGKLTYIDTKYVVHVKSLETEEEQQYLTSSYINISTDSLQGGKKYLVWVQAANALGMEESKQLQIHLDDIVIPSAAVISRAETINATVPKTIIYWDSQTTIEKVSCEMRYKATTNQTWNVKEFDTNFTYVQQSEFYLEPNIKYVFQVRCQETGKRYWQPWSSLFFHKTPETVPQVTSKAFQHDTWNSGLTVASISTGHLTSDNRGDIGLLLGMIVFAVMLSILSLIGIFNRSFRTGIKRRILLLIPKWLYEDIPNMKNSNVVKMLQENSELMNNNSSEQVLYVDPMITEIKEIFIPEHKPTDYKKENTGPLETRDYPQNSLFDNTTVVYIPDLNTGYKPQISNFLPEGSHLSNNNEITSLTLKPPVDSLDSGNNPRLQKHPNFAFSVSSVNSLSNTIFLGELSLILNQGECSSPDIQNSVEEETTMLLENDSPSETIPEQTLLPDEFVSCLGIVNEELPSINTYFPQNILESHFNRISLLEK

B1: Compound of SEQ ID NO: 51 (peptide)
peptide: [Ava]CNT[Trp(7-Me)]K(Ac)C[Yde][2Nal][Thp]EN[3Pal]-NH2
modifications: lactam N-11; disulfide 2-7
SMILES: CC(=O)NCCCC[C@@H]1NC(=O)[C@H](Cc2c[nH]c3c(C)cccc23)NC(=O)[C@H]([C@@H](C)O)NC(=O)[C@H](CC(N)=O)NC(=O)[C@@H]2CSSC[C@H](NC1=O)C(=O)N[C@@H](Cc1ccc(OCCN(C)C)cc1)C(=O)N[C@@H](Cc1ccc3ccccc3c1)C(=O)NC1(CCOCC1)C(=O)N[C@H](C(=O)N[C@@H](CC(N)=O)C(=O)N[C@@H](Cc1cccnc1)C(N)=O)CCC(=O)NCCCCC(=O)N2
B2: Compound of SEQ ID NO: 58 (peptide)
peptide: [Ava]CNTWK(Ac)C[Yde][2Nal][αMeLys(Me2)]EN[3Pal][Sar]-NH2
modifications: lactam N-11; disulfide 2-7
SMILES: CC(=O)NCCCC[C@@H]1NC(=O)[C@H](Cc2c[nH]c3ccccc23)NC(=O)[C@H]([C@@H](C)O)NC(=O)[C@H](CC(N)=O)NC(=O)[C@@H]2CSSC[C@H](NC1=O)C(=O)N[C@@H](Cc1ccc(OCCN(C)C)cc1)C(=O)N[C@@H](Cc1ccc3ccccc3c1)C(=O)N[C@@](C)(CCCCN(C)C)C(=O)N[C@H](C(=O)N[C@@H](CC(N)=O)C(=O)N[C@@H](Cc1cccnc1)C(=O)N(C)CC(N)=O)CCC(=O)NCCCCC(=O)N2
B3: Compound of SEQ ID NO: 59 (peptide)
peptide: [Ava]C[εLys](Ac)WK(Ac)C[Yde][2Nal][αMeLys(Me2)]EN[3Pal][Sar]-NH2
modifications: lactam N-10; disulfide 2-6; also: Cys2 bonded to epsilon-NH2 of Lys3, Lys3 alpha-amine acetylated (K[aAc])
B4: Compound of SEQ ID NO: 53 (peptide)
peptide: [Ahx]C[Ava]WQC[AEF][2Nal][Aib]DAG-NH2
modifications: lactam N-10; disulfide 2-6
SMILES: C[C@H](NC(=O)[C@@H]1CC(=O)NCCCCCC(=O)N[C@H]2CSSC[C@H](NC(=O)[C@H](CCC(N)=O)NC(=O)[C@H](Cc3c[nH]c4ccccc34)NC(=O)CCCCNC2=O)C(=O)N[C@@H](Cc2ccc(OCCN)cc2)C(=O)N[C@@H](Cc2ccc3ccccc3c2)C(=O)NC(C)(C)C(=O)N1)C(=O)NCC(N)=O
B5: Compound of SEQ ID NO: 56 (peptide)
peptide: [Ava]CNT[Trp(7-Me)]K(Ac)C[Yde][2Nal][Thp]ES[3Pal][Sar]-NH2
modifications: lactam N-11; disulfide 2-7
SMILES: CC(=O)NCCCC[C@@H]1NC(=O)[C@H](Cc2c[nH]c3c(C)cccc23)NC(=O)[C@H]([C@@H](C)O)NC(=O)[C@H](CC(N)=O)NC(=O)[C@@H]2CSSC[C@H](NC1=O)C(=O)N[C@@H](Cc1ccc(OCCN(C)C)cc1)C(=O)N[C@@H](Cc1ccc3ccccc3c1)C(=O)NC1(CCOCC1)C(=O)N[C@H](C(=O)N[C@@H](CO)C(=O)N[C@@H](Cc1cccnc1)C(=O)N(C)CC(N)=O)CCC(=O)NCCCCC(=O)N2
B6: Compound of SEQ ID NO: 62 (peptide)
peptide: [Ava]CNT[Trp(7-Me)]QC[Yde][2Nal][Aib]EN[3Pal][Sar]-NH2
modifications: lactam N-11; disulfide 2-7
SMILES: Cc1cccc2c(C[C@@H]3NC(=O)[C@H]([C@@H](C)O)NC(=O)[C@H](CC(N)=O)NC(=O)[C@@H]4CSSC[C@H](NC(=O)[C@H](CCC(N)=O)NC3=O)C(=O)N[C@@H](Cc3ccc(OCCN(C)C)cc3)C(=O)N[C@@H](Cc3ccc5ccccc5c3)C(=O)NC(C)(C)C(=O)N[C@H](C(=O)N[C@@H](CC(N)=O)C(=O)N[C@@H](Cc3cccnc3)C(=O)N(C)CC(N)=O)CCC(=O)NCCCCC(=O)N4)c[nH]c12
B7: Compound of SEQ ID NO: 63 (peptide)
peptide: [Ava]CNT[Trp(7-Me)]QC[Yde][2Nal][αMeL]EN[3Pal][Sar]-NH2
modifications: lactam N-11; disulfide 2-7
SMILES: Cc1cccc2c(C[C@@H]3NC(=O)[C@H]([C@@H](C)O)NC(=O)[C@H](CC(N)=O)NC(=O)[C@@H]4CSSC[C@H](NC(=O)[C@H](CCC(N)=O)NC3=O)C(=O)N[C@@H](Cc3ccc(OCCN(C)C)cc3)C(=O)N[C@@H](Cc3ccc5ccccc5c3)C(=O)N[C@@](C)(CC(C)C)C(=O)N[C@H](C(=O)N[C@@H](CC(N)=O)C(=O)N[C@@H](Cc3cccnc3)C(=O)N(C)CC(N)=O)CCC(=O)NCCCCC(=O)N4)c[nH]c12
B8: Compound of SEQ ID NO: 66 (peptide)
peptide: [Ava]C[εLys](Ac)[Trp(7-Me)]K(Ac)C[Yde][2Nal][Thp]EN[3Pal][Sar]-NH2
modifications: lactam N-10; disulfide 2-6; also: Cys2 carboxyl joined to epsilon-NH2 of Lys3 (isopeptide bond), Lys3 alpha-N acetylated
B9: Compound of SEQ ID NO: 6 (peptide)
peptide: [Ahx]C[NMeN]TWQC[Phe(4-OMe)][2Nal][Aib]DNN-NH2
modifications: lactam N-11; disulfide 2-7
SMILES: COc1ccc(C[C@@H]2NC(=O)[C@@H]3CSSC[C@H](NC(=O)CCCCCNC(=O)C[C@@H](C(=O)N[C@@H](CC(N)=O)C(=O)N[C@@H](CC(N)=O)C(N)=O)NC(=O)C(C)(C)NC(=O)[C@H](Cc4ccc5ccccc5c4)NC2=O)C(=O)N(C)[C@@H](CC(N)=O)C(=O)N[C@@H]([C@@H](C)O)C(=O)N[C@@H](Cc2c[nH]c4ccccc24)C(=O)N[C@@H](CCC(N)=O)C(=O)N3)cc1
B10: Compound of SEQ ID NO: 52 (peptide)
peptide: [Ava]CNT[Trp(7-Me)]QC[Yde][2Nal][Aib]ENH-NH2
modifications: lactam N-11; disulfide 2-7
SMILES: Cc1cccc2c(C[C@@H]3NC(=O)[C@H]([C@@H](C)O)NC(=O)[C@H](CC(N)=O)NC(=O)[C@@H]4CSSC[C@H](NC(=O)[C@H](CCC(N)=O)NC3=O)C(=O)N[C@@H](Cc3ccc(OCCN(C)C)cc3)C(=O)N[C@@H](Cc3ccc5ccccc5c3)C(=O)NC(C)(C)C(=O)N[C@H](C(=O)N[C@@H](CC(N)=O)C(=O)N[C@@H](Cc3c[nH]cn3)C(N)=O)CCC(=O)NCCCCC(=O)N4)c[nH]c12
B11: Compound of SEQ ID NO: 64 (peptide)
peptide: [Ava]CNT[Trp(7-Me)]K(Ac)C[Yde][2Nal][Aib]EN[3Pal][Sar]-NH2
modifications: lactam N-11; disulfide 2-7
SMILES: CC(=O)NCCCC[C@@H]1NC(=O)[C@H](Cc2c[nH]c3c(C)cccc23)NC(=O)[C@H]([C@@H](C)O)NC(=O)[C@H](CC(N)=O)NC(=O)[C@@H]2CSSC[C@H](NC1=O)C(=O)N[C@@H](Cc1ccc(OCCN(C)C)cc1)C(=O)N[C@@H](Cc1ccc3ccccc3c1)C(=O)NC(C)(C)C(=O)N[C@H](C(=O)N[C@@H](CC(N)=O)C(=O)N[C@@H](Cc1cccnc1)C(=O)N(C)CC(N)=O)CCC(=O)NCCCCC(=O)N2
B12: Compound of SEQ ID NO: 55 (peptide)
peptide: [Ava]CNT[Trp(7-Me)]K(Ac)C[Yde][2Nal][Thp]ENHX-NH2
modifications: lactam N-11; disulfide 2-7; not fully specified (residue 14); printed as Apt(§1)-C(@2)-N-T-Wim-K[Ac]-C(@2)-Yde-Nal-Thp-E(§1)-N—H-Mep-NH2
B13: Compound of SEQ ID NO: 50 (peptide)
peptide: [Ava]CNT[Trp(7-Me)]K(Ac)C[Yde][2Nal][αMeL]ENH[βAla]-NH2
modifications: lactam N-11; disulfide 2-7
SMILES: CC(=O)NCCCC[C@@H]1NC(=O)[C@H](Cc2c[nH]c3c(C)cccc23)NC(=O)[C@H]([C@@H](C)O)NC(=O)[C@H](CC(N)=O)NC(=O)[C@@H]2CSSC[C@H](NC1=O)C(=O)N[C@@H](Cc1ccc(OCCN(C)C)cc1)C(=O)N[C@@H](Cc1ccc3ccccc3c1)C(=O)N[C@@](C)(CC(C)C)C(=O)N[C@H](C(=O)N[C@@H](CC(N)=O)C(=O)N[C@@H](Cc1c[nH]cn1)C(=O)NCCC(N)=O)CCC(=O)NCCCCC(=O)N2
B14: Compound of SEQ ID NO: 60 (peptide)
peptide: [NMe5Ava]C[εLys](Ac)[Trp(7-Me)]K(Ac)C[Yde][2Nal][Aib]ENH-NH2
modifications: lactam N-10; disulfide 2-6; also: Cys2 bonded to epsilon-NH2 of Lys3, Lys3 alpha-amine acetylated (K[aAc])
B15: Compound of SEQ ID NO: 54 (peptide)
peptide: [Ava]CNT[Trp(7-Me)]K(Ac)C[Yde][2Nal][αMeLys(Me2)]EN[dL]-NH2
modifications: lactam N-11; disulfide 2-7
SMILES: CC(=O)NCCCC[C@@H]1NC(=O)[C@H](Cc2c[nH]c3c(C)cccc23)NC(=O)[C@H]([C@@H](C)O)NC(=O)[C@H](CC(N)=O)NC(=O)[C@@H]2CSSC[C@H](NC1=O)C(=O)N[C@@H](Cc1ccc(OCCN(C)C)cc1)C(=O)N[C@@H](Cc1ccc3ccccc3c1)C(=O)N[C@@](C)(CCCCN(C)C)C(=O)N[C@H](C(=O)N[C@@H](CC(N)=O)C(=O)N[C@H](CC(C)C)C(N)=O)CCC(=O)NCCCCC(=O)N2

Target: T1, IL-23 receptor on the surface of …
Assay: cell-based or functional assay

Question: How did the “pSTAT3 (nM)” value turn out when B1 was run?
Answer: 0.05 nM

Question: With B2 as the binder, how does the “pSTAT3 (nM)” value read?
Answer: 0.1 nM

Question: With B3 as the binder, how does the “pSTAT3 (nM)” value read?
Answer: 0.07 nM

Question: With B4 as the binder, how does the “pSTAT3 (nM)” value read?
Answer: 60.8 nM

Question: How did the “pSTAT3 (nM)” value turn out when B5 was run?
Answer: 0.16 nM

Question: B6 was tested. Which “pSTAT3 (nM)” value did it give?
Answer: 0.2 nM

Question: For B7, which “pSTAT3 (nM)” value is on record?
Answer: 0.2 nM

Question: For B8, which “pSTAT3 (nM)” value is on record?
Answer: 0.15 nM

Question: How did the “pSTAT3 (nM)” value turn out when B9 was run?
Answer: 72.9 nM

Question: With B10 as the binder, how does the “pSTAT3 (nM)” value read?
Answer: 1.25 nM

Question: B11 was tested. Which “pSTAT3 (nM)” value did it give?
Answer: 0.22 nM

Question: How did the “pSTAT3 (nM)” value turn out when B12 was run?
Answer: 0.95 nM

Question: Which “pSTAT3 (nM)” value does the source give for B13 here?
Answer: 0.98 nM

Question: Which “pSTAT3 (nM)” value does the source give for B14 here?
Answer: 0.16 nM

Question: With B15 as the binder, how does the “pSTAT3 (nM)” value read?
Answer: 2.59 nM

Reference: patent US20260258084A1, “New Peptides as Selective IL-23 Receptor Antagonists” (Sanofi, priority 2022, published 2026)
